Molecular target: Smac/DIABLO, endogenous (human (endogenous in HEK293F and HEK293T))
Test: cryo-EM structure; FLAG-BIRC6 purified from HEK293F, cross-linked with 0.01% glutaraldehyde; global map 3.6 Å; a class with endogenous co-purified Smac in the central cavity at 4.7 Å

Smac/DIABLO, endogenous (natural protein)
stoichiometry N: 2

From article PMC10827748
